# In US20150299281A1 (ZEALAND PHARMA A S, published 2015):
# Numbered stars: 1 amine (or outer) side, 2 acyl side, 3 side chain; on linkers, the order of the positions; unused ones are H or OH. Square brackets hold non-standard residues; d marks the D form. Side chains are listed from the residue outwards. * marks the point of attachment. C16 diacid = O=C(O)CCCCCCCCCCCCCCC(=O)*; γGlu = O=C(O)[C@H](CCC(=O)[*:2])N[*:1]; Palmitoyl = CCCCCCCCCCCCCCCC(=O)*; Aib = CC(C)(N)C(=O)O
# T1: human GIP receptor (human, UniProt P48546 22-466)
# T1 sequence (looked up): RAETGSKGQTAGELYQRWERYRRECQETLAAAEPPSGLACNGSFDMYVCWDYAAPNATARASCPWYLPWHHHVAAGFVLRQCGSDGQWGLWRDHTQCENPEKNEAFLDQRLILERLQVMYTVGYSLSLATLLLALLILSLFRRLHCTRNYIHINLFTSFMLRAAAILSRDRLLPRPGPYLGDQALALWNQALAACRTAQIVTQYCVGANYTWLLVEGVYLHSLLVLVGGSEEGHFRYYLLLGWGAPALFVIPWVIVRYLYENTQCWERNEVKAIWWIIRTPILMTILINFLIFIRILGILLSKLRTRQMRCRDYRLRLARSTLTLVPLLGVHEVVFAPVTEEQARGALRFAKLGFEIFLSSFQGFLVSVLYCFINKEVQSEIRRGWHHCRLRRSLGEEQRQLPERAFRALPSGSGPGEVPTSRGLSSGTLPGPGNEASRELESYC
# B1: Compound 35 (peptide)
# peptide: H-Y[Aib]EGTFTSDYSIYLDKK([γGlu-Palmitoyl])AQRAFVNWLLA[Aib]KPSSGAPPPS-NH2
# SMILES: CCCCCCCCCCCCCCCC(=O)N[C@@H](CCC(=O)NCCCC[C@H](NC(=O)[C@H](CCCCN)NC(=O)[C@H](CC(=O)O)NC(=O)[C@H](CC(C)C)NC(=O)[C@H](Cc1ccc(O)cc1)NC(=O)[C@@H](NC(=O)[C@H](CO)NC(=O)[C@H](Cc1ccc(O)cc1)NC(=O)[C@H](CC(=O)O)NC(=O)[C@H](CO)NC(=O)[C@@H](NC(=O)[C@H](Cc1ccccc1)NC(=O)[C@@H](NC(=O)CNC(=O)[C@H](CCC(=O)O)NC(=O)C(C)(C)NC(=O)[C@@H](N)Cc1ccc(O)cc1)[C@@H](C)O)[C@@H](C)O)[C@@H](C)CC)C(=O)N[C@@H](C)C(=O)N[C@@H](CCC(N)=O)C(=O)N[C@@H](CCCNC(=N)N)C(=O)N[C@@H](C)C(=O)N[C@@H](Cc1ccccc1)C(=O)N[C@H](C(=O)N[C@@H](CC(N)=O)C(=O)N[C@@H](Cc1c[nH]c2ccccc12)C(=O)N[C@@H](CC(C)C)C(=O)N[C@@H](CC(C)C)C(=O)N[C@@H](C)C(=O)NC(C)(C)C(=O)N[C@@H](CCCCN)C(=O)N1CCC[C@H]1C(=O)N[C@@H](CO)C(=O)N[C@@H](CO)C(=O)NCC(=O)N[C@@H](C)C(=O)N1CCC[C@H]1C(=O)N1CCC[C@H]1C(=O)N1CCC[C@H]1C(=O)N[C@@H](CO)C(N)=O)C(C)C)C(=O)O
# B2: Compound 37 (peptide)
# peptide: H-Y[Aib]EGTFTSDYSIYLEKKAAKDFVEWLLSA-NH2
# SMILES: CC[C@H](C)[C@H](NC(=O)[C@H](CO)NC(=O)[C@H](Cc1ccc(O)cc1)NC(=O)[C@H](CC(=O)O)NC(=O)[C@H](CO)NC(=O)[C@@H](NC(=O)[C@H](Cc1ccccc1)NC(=O)[C@@H](NC(=O)CNC(=O)[C@H](CCC(=O)O)NC(=O)C(C)(C)NC(=O)[C@@H](N)Cc1ccc(O)cc1)[C@@H](C)O)[C@@H](C)O)C(=O)N[C@@H](Cc1ccc(O)cc1)C(=O)N[C@@H](CC(C)C)C(=O)N[C@@H](CCC(=O)O)C(=O)N[C@@H](CCCCN)C(=O)N[C@@H](CCCCN)C(=O)N[C@@H](C)C(=O)N[C@@H](C)C(=O)N[C@@H](CCCCN)C(=O)N[C@@H](CC(=O)O)C(=O)N[C@@H](Cc1ccccc1)C(=O)N[C@H](C(=O)N[C@@H](CCC(=O)O)C(=O)N[C@@H](Cc1c[nH]c2ccccc12)C(=O)N[C@@H](CC(C)C)C(=O)N[C@@H](CC(C)C)C(=O)N[C@@H](CO)C(=O)N[C@@H](C)C(N)=O)C(C)C
# B3: Compound 31 (peptide)
# peptide: H-Y[Aib]EGTFTSDYSIYLDKK([γGlu-C16 diacid])AQRAFVNWLLA[Aib]K-NH2
# SMILES: CC[C@H](C)[C@H](NC(=O)[C@H](CO)NC(=O)[C@H](Cc1ccc(O)cc1)NC(=O)[C@H](CC(=O)O)NC(=O)[C@H](CO)NC(=O)[C@@H](NC(=O)[C@H](Cc1ccccc1)NC(=O)[C@@H](NC(=O)CNC(=O)[C@H](CCC(=O)O)NC(=O)C(C)(C)NC(=O)[C@@H](N)Cc1ccc(O)cc1)[C@@H](C)O)[C@@H](C)O)C(=O)N[C@@H](Cc1ccc(O)cc1)C(=O)N[C@@H](CC(C)C)C(=O)N[C@@H](CC(=O)O)C(=O)N[C@@H](CCCCN)C(=O)N[C@@H](CCCCNC(=O)CC[C@H](NC(=O)CCCCCCCCCCCCCCC(=O)O)C(=O)O)C(=O)N[C@@H](C)C(=O)N[C@@H](CCC(N)=O)C(=O)N[C@@H](CCCNC(=N)N)C(=O)N[C@@H](C)C(=O)N[C@@H](Cc1ccccc1)C(=O)N[C@H](C(=O)N[C@@H](CC(N)=O)C(=O)N[C@@H](Cc1c[nH]c2ccccc12)C(=O)N[C@@H](CC(C)C)C(=O)N[C@@H](CC(C)C)C(=O)N[C@@H](C)C(=O)NC(C)(C)C(=O)N[C@@H](CCCCN)C(N)=O)C(C)C
# B4: Compound 33 (peptide)
# peptide: H-Y[Aib]EGTFTSDYSIYLDKK([γGlu-Palmitoyl])AQRAFVEWLLAQGPSSGAPPPS-NH2
# SMILES: CCCCCCCCCCCCCCCC(=O)N[C@@H](CCC(=O)NCCCC[C@H](NC(=O)[C@H](CCCCN)NC(=O)[C@H](CC(=O)O)NC(=O)[C@H](CC(C)C)NC(=O)[C@H](Cc1ccc(O)cc1)NC(=O)[C@@H](NC(=O)[C@H](CO)NC(=O)[C@H](Cc1ccc(O)cc1)NC(=O)[C@H](CC(=O)O)NC(=O)[C@H](CO)NC(=O)[C@@H](NC(=O)[C@H](Cc1ccccc1)NC(=O)[C@@H](NC(=O)CNC(=O)[C@H](CCC(=O)O)NC(=O)C(C)(C)NC(=O)[C@@H](N)Cc1ccc(O)cc1)[C@@H](C)O)[C@@H](C)O)[C@@H](C)CC)C(=O)N[C@@H](C)C(=O)N[C@@H](CCC(N)=O)C(=O)N[C@@H](CCCNC(=N)N)C(=O)N[C@@H](C)C(=O)N[C@@H](Cc1ccccc1)C(=O)N[C@H](C(=O)N[C@@H](CCC(=O)O)C(=O)N[C@@H](Cc1c[nH]c2ccccc12)C(=O)N[C@@H](CC(C)C)C(=O)N[C@@H](CC(C)C)C(=O)N[C@@H](C)C(=O)N[C@@H](CCC(N)=O)C(=O)NCC(=O)N1CCC[C@H]1C(=O)N[C@@H](CO)C(=O)N[C@@H](CO)C(=O)NCC(=O)N[C@@H](C)C(=O)N1CCC[C@H]1C(=O)N1CCC[C@H]1C(=O)N1CCC[C@H]1C(=O)N[C@@H](CO)C(N)=O)C(C)C)C(=O)O
# B5: Compound 38 (peptide)
# peptide: H-Y[Aib]EGTFTSDYSIYLEKKAAHDFVEWLLSA-NH2
# SMILES: CC[C@H](C)[C@H](NC(=O)[C@H](CO)NC(=O)[C@H](Cc1ccc(O)cc1)NC(=O)[C@H](CC(=O)O)NC(=O)[C@H](CO)NC(=O)[C@@H](NC(=O)[C@H](Cc1ccccc1)NC(=O)[C@@H](NC(=O)CNC(=O)[C@H](CCC(=O)O)NC(=O)C(C)(C)NC(=O)[C@@H](N)Cc1ccc(O)cc1)[C@@H](C)O)[C@@H](C)O)C(=O)N[C@@H](Cc1ccc(O)cc1)C(=O)N[C@@H](CC(C)C)C(=O)N[C@@H](CCC(=O)O)C(=O)N[C@@H](CCCCN)C(=O)N[C@@H](CCCCN)C(=O)N[C@@H](C)C(=O)N[C@@H](C)C(=O)N[C@@H](Cc1c[nH]cn1)C(=O)N[C@@H](CC(=O)O)C(=O)N[C@@H](Cc1ccccc1)C(=O)N[C@H](C(=O)N[C@@H](CCC(=O)O)C(=O)N[C@@H](Cc1c[nH]c2ccccc12)C(=O)N[C@@H](CC(C)C)C(=O)N[C@@H](CC(C)C)C(=O)N[C@@H](CO)C(=O)N[C@@H](C)C(N)=O)C(C)C
# B6: Compound 32 (peptide)
# peptide: H-Y[Aib]EGTFTSDYSI[Aib]LDKK([γGlu-Palmitoyl])AQRAFVEWLLAQGPSSGAPPPS-NH2
# SMILES: CCCCCCCCCCCCCCCC(=O)N[C@@H](CCC(=O)NCCCC[C@H](NC(=O)[C@H](CCCCN)NC(=O)[C@H](CC(=O)O)NC(=O)[C@H](CC(C)C)NC(=O)C(C)(C)NC(=O)[C@@H](NC(=O)[C@H](CO)NC(=O)[C@H](Cc1ccc(O)cc1)NC(=O)[C@H](CC(=O)O)NC(=O)[C@H](CO)NC(=O)[C@@H](NC(=O)[C@H](Cc1ccccc1)NC(=O)[C@@H](NC(=O)CNC(=O)[C@H](CCC(=O)O)NC(=O)C(C)(C)NC(=O)[C@@H](N)Cc1ccc(O)cc1)[C@@H](C)O)[C@@H](C)O)[C@@H](C)CC)C(=O)N[C@@H](C)C(=O)N[C@@H](CCC(N)=O)C(=O)N[C@@H](CCCNC(=N)N)C(=O)N[C@@H](C)C(=O)N[C@@H](Cc1ccccc1)C(=O)N[C@H](C(=O)N[C@@H](CCC(=O)O)C(=O)N[C@@H](Cc1c[nH]c2ccccc12)C(=O)N[C@@H](CC(C)C)C(=O)N[C@@H](CC(C)C)C(=O)N[C@@H](C)C(=O)N[C@@H](CCC(N)=O)C(=O)NCC(=O)N1CCC[C@H]1C(=O)N[C@@H](CO)C(=O)N[C@@H](CO)C(=O)NCC(=O)N[C@@H](C)C(=O)N1CCC[C@H]1C(=O)N1CCC[C@H]1C(=O)N1CCC[C@H]1C(=O)N[C@@H](CO)C(N)=O)C(C)C)C(=O)O
# B7: Compound 34 (peptide)
# peptide: H-Y[Aib]EGTFTSDYSIYLDEK([γGlu-Palmitoyl])AAKEFIEWLESA-NH2
# SMILES: CCCCCCCCCCCCCCCC(=O)N[C@@H](CCC(=O)NCCCC[C@H](NC(=O)[C@H](CCC(=O)O)NC(=O)[C@H](CC(=O)O)NC(=O)[C@H](CC(C)C)NC(=O)[C@H](Cc1ccc(O)cc1)NC(=O)[C@@H](NC(=O)[C@H](CO)NC(=O)[C@H](Cc1ccc(O)cc1)NC(=O)[C@H](CC(=O)O)NC(=O)[C@H](CO)NC(=O)[C@@H](NC(=O)[C@H](Cc1ccccc1)NC(=O)[C@@H](NC(=O)CNC(=O)[C@H](CCC(=O)O)NC(=O)C(C)(C)NC(=O)[C@@H](N)Cc1ccc(O)cc1)[C@@H](C)O)[C@@H](C)O)[C@@H](C)CC)C(=O)N[C@@H](C)C(=O)N[C@@H](C)C(=O)N[C@@H](CCCCN)C(=O)N[C@@H](CCC(=O)O)C(=O)N[C@@H](Cc1ccccc1)C(=O)N[C@H](C(=O)N[C@@H](CCC(=O)O)C(=O)N[C@@H](Cc1c[nH]c2ccccc12)C(=O)N[C@@H](CC(C)C)C(=O)N[C@@H](CCC(=O)O)C(=O)N[C@@H](CO)C(=O)N[C@@H](C)C(N)=O)[C@@H](C)CC)C(=O)O
# Target: T1, human GIP receptor
# Assay: cell-based or functional assay
row,Binder,"EC50, cAMP induction in HEK293 cells expressing human GIP R [pM]"
1,B1,28
2,H-Y[Aib]EGTFISDYSIYLEKIAAKEFVNWLLAQK-NH2 [Compound 4],22
3,B2,9.7
4,B3,22
5,B4,35
6,B5,7
7,B6,12
8,B7,45

# Target: human GLP-1 receptor (human, UniProt P43220 24-463)
# Assay: cell-based or functional assay
row,Binder,"EC50, cAMP induction in HEK293 cells expressing human GLP-1 R [pM]"
1,B1,22
2,H-Y[Aib]EGTFISDYSIYLEKIAAKEFVNWLLAQK-NH2 [Compound 4],2600
3,B2,18
4,B3,20
5,B4,31
6,B5,18
7,B6,18
8,B7,31
